Data taken from US20230407373A1 (priority 2020, published 2023).

Tests used:
gRNA of HCoV-OC43 = type: binding; details: type n_48_v: 48 hours post-infection, no-probe control on infected cells
HCoV-OC43 gRNA and sgRNA = type: binding; details: for target (unweighted spectral count, OC43 Probe II) / background (unweighted spectral count, no-probe control): type n_48_v, 48 hpi; for target (unweighted spectral count, OC43 Probe II): OC43 Probe II capture on infected cells; for background (unweighted spectral count, no-probe control): no-probe control on infected cells; for target (unweighted spectral count): OC43 Probe II, 12 hpi (type n_12_v), infected cells, tested against no-probe control

B1: HNANPF (protein, UniProt P52597 1-415, looked up)
Heterogeneous nuclear …: MMLGPEGGEGFVVKLRGLPWSCSVEDVQNFLSDCTIHDGAAGVHFIYTREGRQSGEAFVELGSEDDVKMALKKDRESMGHRYIEVFKSHRTEMDWVLKHSGPNSADSANDGFVRLRGLPFGCTKEEIVQFFSGLEIVPNGITLPVDPEGKITGEAFVQFASQELAEKALGKHKERIGHRYIEVFKSSQEEVRSYSDPPLKFMSVQRPGPYDRPGTARRYIGIVKQAGLERMRPGAYSTGYGGYEEYSGLSDGYGFTTDLFGRDLSYCLSGMYDHRYGDSEFTVQSTTGHCVHMRGLPYKATENDIYNFFSPLNPVRVHIEIGPDGRVTGEADVEFATHEEAVAAMSKDRANMQHRYIELFLNSTTGASNGAYSSQVMQGMGVSAAQATYSGLESQSVSGCYGAGYSGQNSMGGYD
background (spectral count, no-probe control) (gRNA of HCoV-OC43): 4

B2: PATLI (protein, UniProt Q86TB9 1-770, looked up)
Protein PAT1 homolog 1: MFRYESLEDCPLDEDEDAFQGLGEEDEEIDQFNDDTFGSGAVDDDWQEAHERLAELEEKLPVAVNEQTGNGERDEMDLLGDHEENLAERLSKMVIENELEDPAIMRAVQTRPVLQPQPGSLNSSIWDGSEVLRRIRGPLLAQEMPTVSVLEYALPQRPPQGPEDDRDLSERALPRRSTSPIIGSPPVRAVPIGTPPKQMAVPSFTQQILCPKPVHVRPPMPPRYPAPYGERMSPNQLCSVPNSSLLGHPFPPSVPPVLSPLQRAQLLGGAQLQPGRMSPSQFARVPGFVGSPLAAMNPKLLQGRVGQMLPPAPGFRAFFSAPPSATPPPQQHPPGPGPHLQNLRSQAPMFRPDTTHLHPQHRRLLHQRQQQNRSQHRNLNGAGDRGSHRSSHQDHLRKDPYANLMLQREKDWVSKIQMMQLQSTDPYLDDFYYQNYFEKLEKLSAAEEIQGDGPKKERTKLITPQVAKLEHAYKPVQFEGSLGKLTVSSVNNPRKMIDAVVTSRSEDDETKEKQVRDKRRKTLVIIEKTYSLLLDVEDYERRYLLSLEEERPALMDDRKHKICSMYDNLRGKLPGQERPSDDHFVQIMCIRKGKRMVARILPFLSTEQAADILMTTARNLPFLIKKDAQDEVLPCLLSPFSLLLYHLPSVSITSLLRQLMNLPQSAATPALSNPHLTAVLQNKFGLSLLLILLSRGEDLQSSDPATESTQNNQWTEVMFMATRELLRIPQAALAKPISIPTNLVSLFSRYVDRQKLNLLETKLQLVQGIR
target (unweighted spectral count, OC43 Probe II) (HCoV-OC43 gRNA and sgRNA): 5 | background (unweighted spectral count, no-probe control) (HCoV-OC43 gRNA and sgRNA): 1

B3: ZNF622 (protein, UniProt Q969S3 2-477, looked up)
Cytoplasmic 60S subunit …: ATYTCITCRVAFRDADMQRAHYKTDWHRYNLRRKVASMAPVTAEGFQERVRAQRAVAEEESKGSATYCTVCSKKFASFNAYENHLKSRRHVELEKKAVQAVNRKVEMMNEKNLEKGLGVDSVDKDAMNAAIQQAIKAQPSMSPKKAPPAPAKEARNVVAVGTGGRGTHDRDPSEKPPRLQWFEQQAKKLAKQQEEDSEEEEEDLDGDDWEDIDSDEELECEDTEAMDDVVEQDAEEEEAEEGPPLGAIPITDCLFCSHHSSSLMKNVAHMTKDHSFFIPDIEYLSDIKGLIKYLGEKVGVGKICLWCNEKGKSFYSTEAVQAHMNDKSHCKLFTDGDAALEFADFYDFRSSYPDHKEGEDPNKAEELPSEKNLEYDDETMELILPSGARVGHRSLMRYYKQRFGLSRAVAVAKNRKAVGRVLQQYRALGWTGSTGAALMRERDMQYVQRMKSKWMLKTGMKNNATKQMHFRVQVRF
target (unweighted spectral count, OC43 Probe II) (HCoV-OC43 gRNA and sgRNA): 5 | background (unweighted spectral count, no-probe control) (HCoV-OC43 gRNA and sgRNA): 1

B4: HIST1H1D (protein, UniProt P16402 2-221, looked up)
Histone H1.3: SETAPLAPTIPAPAEKTPVKKKAKKAGATAGKRKASGPPVSELITKAVAASKERSGVSLAALKKALAAAGYDVEKNNSRIKLGLKSLVSKGTLVQTKGTGASGSFKLNKKAASGEGKPKAKKAGAAKPRKPAGAAKKPKKVAGAATPKKSIKKTPKKVKKPATAAGTKKVAKSAKKVKTPQPKKAAKSPAKAKAPKPKAAKPKSGKPKVTKAKKAAPKKK
target (unweighted spectral count) (HCoV-OC43 gRNA and sgRNA): 5

B5: POLG (protein, UniProt P54098 1-1239, looked up)
DNA polymerase subunit gamma-1: MSRLLWRKVAGATVGPGPVPAPGRWVSSSVPASDPSDGQRRRQQQQQQQQQQQQQPQQPQVLSSEGGQLRHNPLDIQMLSRGLHEQIFGQGGEMPGEAAVRRSVEHLQKHGLWGQPAVPLPDVELRLPPLYGDNLDQHFRLLAQKQSLPYLEAANLLLQAQLPPKPPAWAWAEGWTRYGPEGEAVPVAIPEERALVFDVEVCLAEGTCPTLAVAISPSAWYSWCSQRLVEERYSWTSQLSPADLIPLEVPTGASSPTQRDWQEQLVVGHNVSFDRAHIREQYLIQGSRMRFLDTMSMHMAISGLSSFQRSLWIAAKQGKHKVQPPTKQGQKSQRKARRGPAISSWDWLDISSVNSLAEVHRLYVGGPPLEKEPRELFVKGTMKDIRENFQDLMQYCAQDVWATHEVFQQQLPLFLERCPHPVTLAGMLEMGVSYLPVNQNWERYLAEAQGTYEELQREMKKSLMDLANDACQLLSGERYKEDPWLWDLEWDLQEFKQKKAKKVKKEPATASKLPIEGAGAPGDPMDQEDLGPCSEEEEFQQDVMARACLQKLKGTTELLPKRPQHLPGHPGWYRKLCPRLDDPAWTPGPSLLSLQMRVTPKLMALTWDGFPLHYSERHGWGYLVPGRRDNLAKLPTGTTLESAGVVCPYRAIESLYRKHCLEQGKQQLMPQEAGLAEEFLLTDNSAIWQTVEELDYLEVEAEAKMENLRAAVPGQPLALTARGGPKDTQPSYHHGNGPYNDVDIPGCWFFKLPHKDGNSCNVGSPFAKDFLPKMEDGTLQAGPGGASGPRALEINKMISFWRNAHKRISSQMVVWLPRSALPRAVIRHPDYDEEGLYGAILPQVVTAGTITRRAVEPTWLTASNARPDRVGSELKAMVQAPPGYTLVGADVDSQELWIAAVLGDAHFAGMHGCTAFGWMTLQGRKSRGTDLHSKTATTVGISREHAKIFNYGRIYGAGQPFAERLLMQFNHRLTQQEAAEKAQQMYAATKGLRWYRLSDEGEWLVRELNLPVDRTEGGWISLQDLRKVQRETARKSQWKKWEVVAERAWKGGTESEMFNKLESIATSDIPRTPVLGCCISRALEPSAVQEEFMTSRVNWVVQSSAVDYLHLMLVAMKWLFEEFAIDGRFCISIHDEVRYLVREEDRYRAALALQITNLLTRCMFAYKLGLNDLPQSVAFFSAVDIDRCLRKEVTMDCKTPSNPTGMERRYGIPQGEALDIYQIIELTKGSLEKRSQPGP
target (unweighted spectral count) (HCoV-OC43 gRNA and sgRNA): 5

B6: RNPS1 (protein, UniProt Q15287 1-305, looked up)
RNA-binding protein with …: MDLSGVKKKSLLGVKENNKKSSTRAPSPTKRKDRSDEKSKDRSKDKGATKESSEKDRGRDKTRKRRSASSGSSSTRSRSSSTSSSGSSTSTGSSSGSSSSSASSRSGSSSTSRSSSSSSSSGSPSPSRRRHDNRRRSRSKSKPPKRDEKERKRRSPSPKPTKVHIGRLTRNVTKDHIMEIFSTYGKIKMIDMPVERMHPHLSKGYAYVEFENPDEAEKALKHMDGGQIDGQEITATAVLAPWPRPPPRRFSPPRRMLPPPPMWRRSPPRMRRRSRSPRRRSPVRRRSRSPGRRRHRSRSSSNSSR
target (unweighted spectral count) (HCoV-OC43 gRNA and sgRNA): 7

B7: TMPO (protein, UniProt P42166 2-694, looked up)
Lamina-associated polypeptide …: PEFLEDPSVLTKDKLKSELVANNVTLPAGEQRKDVYVQLYLQHLTARNRPPLPAGTNSKGPPDFSSDEEREPTPVLGSGAAAAGRSRAAVGRKATKKTDKPRQEDKDDLDVTELTNEDLLDQLVKYGVNPGPIVGTTRKLYEKKLLKLREQGTESRSSTPLPTISSSAENTRQNGSNDSDRYSDNEEGKKKEHKKVKSTRDIVPFSELGTTPSGGGFFQGISFPEISTRPPLGSTELQAAKKVHTSKGDLPREPLVATNLPGRGQLQKLASERNLFISCKSSHDRCLEKSSSSSSQPEHSAMLVSTAASPSLIKETTTGYYKDIVENICGREKSGIQPLCPERSHISDQSPLSSKRKALEESESSQLISPPLAQAIRDYVNSLLVQGGVGSLPGTSNSMPPLDVENIQKRIDQSKFQETEFLSPPRKVPRLSEKSVEERDSGSFVAFQNIPGSELMSSFAKTVVSHSLTTLGLEVAKQSQHDKIDASELSFPFHESILKVIEEEWQQVDRQLPSLACKYPVSSREATQILSVPKVDDEILGFISEATPLGGIQAASTESCNQQLDLALCRAYEAAASALQIATHTAFVAKAMQADISQAAQILSSDPSRTHQALGILSKTYDAASYICEAAFDEVKMAAHTMGNATVGRRYLWLKDCKINLASKNKLASTPFKGGTLFGGEVCKVIKKRGNKH
target (unweighted spectral count) (HCoV-OC43 gRNA and sgRNA): 4

B8: DBX3X: host protein, UniProt O00571 (protein, UniProt O00571 2-662, looked up)
ATP-dependent RNA helicase …: SHVAVENALGLDQQFAGLDLNSSDNQSGGSTASKGRYIPPHLRNREATKGFYDKDSSGWSSSKDKDAYSSFGSRSDSRGKSSFFSDRGSGSRGRFDDRGRSDYDGIGSRGDRSGFGKFERGGNSRWCDKSDEDDWSKPLPPSERLEQELFSGGNTGINFEKYDDIPVEATGNNCPPHIESFSDVEMGEIIMGNIELTRYTRPTPVQKHAIPIIKEKRDLMACAQTGSGKTAAFLLPILSQIYSDGPGEALRAMKENGRYGRRKQYPISLVLAPTRELAVQIYEEARKFSYRSRVRPCVVYGGADIGQQIRDLERGCHLLVATPGRLVDMMERGKIGLDFCKYLVLDEADRMLDMGFEPQIRRIVEQDTMPPKGVRHTMMFSATFPKEIQMLARDFLDEYIFLAVGRVGSTSENITQKVVWVEESDKRSFLLDLLNATGKDSLTLVFVETKKGADSLEDFLYHEGYACTSIHGDRSQRDREEALHQFRSGKSPILVATAVAARGLDISNVKHVINFDLPSDIEEYVHRIGRTGRVGNLGLATSFFNERNINITKDLLDLLVEAKQEVPSWLENMAYEHHYKGSSRGRSKSSRFSGGFGARDYRQSSGASSSSFSSSRASSSRSGGGGHGSSRGFGGGGYGGFYNSDGYGGNYNSQGVDWWGN
target (spectral count) (HCoV-OC43 gRNA and sgRNA; type s_36_m, HCoV-OC43-infected HCT-8 cells, 36 hpi, Probe II): 7 | background (spectral count) (HCoV-OC43 gRNA and sgRNA; type s_36_m, uninfected-probe control, 36 hpi, Probe II): 1
